The values that follow come from patent US20110124010A1.

In assay [1] the target is Myelin basic protein (MBP) (human) (UniProt P02686). The experiment in a line: flow cytometry, intracellular staining of CD14+ macrophages from CSF; isotype control background. On the technique in general: In flow cytometry, cells or beads pass a laser one at a time.
The target is the same in assay [2]. The experiment in a line: flow cytometry, intracellular staining of CD14+ macrophages from peripheral blood; isotype control background.

Chain of UniProt P02686 (P02686 whole entry): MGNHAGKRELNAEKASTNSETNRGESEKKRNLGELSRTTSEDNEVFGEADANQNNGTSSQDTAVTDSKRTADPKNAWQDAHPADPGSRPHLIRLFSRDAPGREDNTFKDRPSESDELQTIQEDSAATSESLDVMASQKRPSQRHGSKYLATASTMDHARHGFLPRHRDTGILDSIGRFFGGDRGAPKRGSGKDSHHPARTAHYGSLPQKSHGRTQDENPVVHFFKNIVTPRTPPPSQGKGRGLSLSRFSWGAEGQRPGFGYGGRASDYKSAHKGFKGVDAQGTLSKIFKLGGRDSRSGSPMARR

“Non-specific isotype specific antibody (Rabbit IgG) from Epitomics”: in assay [1], the Geometric Mean FI stood at 292 and the Mean FI is 328. In assay [2], this substance gave a Geometric Mean FI of 766 and a Mean FI of 783.
